Usually Kd stands for the equilibrium constant for the complex coming apart. A higher Kd goes with lower affinity.

Assay [1] deals with biotinylated human SIRPα allele 1 domain 1 (a1d1) (human) (UniProt P78324). Put plainly: SPR, Biacore T100, biotinylated SIRPα on SA chip, 25 C, 1:1 Langmuir model. On the technique in general: SPR reads the build-up and loss of mass on a sensor chip optically.
Assay [2] deals with biotinylated human SIRPα allele 2 domain 1 (a2d1) (human) (UniProt P78324). Described as above.
Sequence of biotinylated human SIRPα allele 2 domain 1 (a2d1) (human) (P78324 other isoform, or with tags, fused parts or gaps): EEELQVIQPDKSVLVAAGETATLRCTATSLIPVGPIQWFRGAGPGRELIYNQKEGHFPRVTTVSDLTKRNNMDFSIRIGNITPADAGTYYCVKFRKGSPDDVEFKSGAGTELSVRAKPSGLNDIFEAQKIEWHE

Sequence of biotinylated human SIRPα allele 1 domain 1 (a1d1) (human) (P78324 other isoform, or with tags, fused parts or gaps): as above

In the case of “WT CD47 (human CD47 IgSF domain, C15G, C-terminal 8x histidine tag) (from UniProt Q08722 19-135) (ligand)”, the Kd in assay [1] turned out to be 285 nM; in assay [2] it was 476 nM.

The values are drawn from US20180127480A1.
